Source: the supplement of paper PMC12042874
± gives the uncertainty stated by the source.

assay: amyloid nucleation score (Sup35N fusion, yeast selection) (log enrichment); library NNK3; higher = more nucleation; inactive = no reads after selection
Summary of the method: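 Random libraries were run with three technical output replicates. In each, psi-negative yeast expressing Sup35N fused to peptides of 20 random codons were induced 24 hours with 100 μM copper sulfate and grown 7 days at 30°C on medium lacking adenine and uracil, and input and output plasmid inserts were Illumina-sequenced. The nucleation score is the DiMSum log enrichment of output over input reads, centred on the mode score of non-aggregating sequences, and sequences under 100 input reads were excluded.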

Q: For DYYLNLGGK, which amyloid nucleation score is on record?
A: Its amyloid nucleation score is “inactive”.

Q: For EAGSTLWCGWKRYASCGRAE, which amyloid nucleation score is on record?
A: Its amyloid nucleation score is “inactive”.

Q: Which amyloid nucleation score does the source give for EAHGYVR here?
A: Its amyloid nucleation score is “inactive”.

Q: With EAKLVGGFTDFRELITNCLV as the substance, how does the amyloid nucleation score read?
A: Its amyloid nucleation score is 1.01 ± 0.17.

Q: With EAPRFCSRAMDYVILQGWTL as the substance, how does the amyloid nucleation score read?
A: The amyloid nucleation score was “inactive”.

Q: For ECELPNAPTCEICKIDSRLG, which amyloid nucleation score is on record?
A: Its amyloid nucleation score is “inactive”.

Q: With ECIGRKRELDLWSAARYAYS as the substance, how does the amyloid nucleation score read?
A: Its amyloid nucleation score is “inactive”.

Q: Which amyloid nucleation score does the source give for ECLKPCSSNCTNRPTARPQC here?
A: Its amyloid nucleation score is “inactive”.

Q: For ECTLGCTSDWGNLKARHGVR, which amyloid nucleation score is on record?
A: Its amyloid nucleation score is “inactive”.

Q: With ECVFIKFWVEGWKTLWSWSA as the substance, how does the amyloid nucleation score read?
A: The amyloid nucleation score was “inactive”.

Q: For ECYFFHFTR, which amyloid nucleation score is on record?
A: The amyloid nucleation score was 1.34 ± 0.12.

Q: With EDFNRILVRNVRS as the substance, how does the amyloid nucleation score read?
A: The amyloid nucleation score was “inactive”.

Q: For EDIEMEMLLLGCNLEVLNAK, which amyloid nucleation score is on record?
A: The amyloid nucleation score was “inactive”.

Q: With EDLVLRIDSTAACAELEKWL as the substance, how does the amyloid nucleation score read?
A: The amyloid nucleation score was “inactive”.

Q: With EDPGLYFLRVS as the substance, how does the amyloid nucleation score read?
A: The amyloid nucleation score was “inactive”.

Q: For EENTVSSTAIKNVVYSQFQV, which amyloid nucleation score is on record?
A: Its amyloid nucleation score is “inactive”.

Q: With EFMIIMYSHSLCVLQAVQLV as the substance, how does the amyloid nucleation score read?
A: The amyloid nucleation score was “inactive”.

Q: With EFQGQTKSSWAYRLDKLCLP as the substance, how does the amyloid nucleation score read?
A: Its amyloid nucleation score is “inactive”.

Q: Which amyloid nucleation score does the source give for EGEVCSVCY here?
A: The amyloid nucleation score was “inactive”.

Q: With EGHGGTRLSHRA as the substance, how does the amyloid nucleation score read?
A: The amyloid nucleation score was “inactive”.

Q: Which amyloid nucleation score does the source give for EGSIQMWTGTSLLDTRIWGG here?
A: The amyloid nucleation score was “inactive”.

Q: For EGVTII, which amyloid nucleation score is on record?
A: The amyloid nucleation score was “inactive”.

Q: For EHLQRGSHLFSFSRSEI, which amyloid nucleation score is on record?
A: The amyloid nucleation score was “inactive”.

Q: Which amyloid nucleation score does the source give for EHVRVYFVLDYFDFCQAPAG here?
A: Its amyloid nucleation score is “inactive”.

Q: With EICSSNKRQRLKRVMEVIFC as the substance, how does the amyloid nucleation score read?
A: Its amyloid nucleation score is “inactive”.

Q: With EIKYTDL as the substance, how does the amyloid nucleation score read?
A: Its amyloid nucleation score is “inactive”.

Q: Which amyloid nucleation score does the source give for EIMYVLTIFSNVFVMFFS here?
A: The amyloid nucleation score was -0.436 ± 0.44.

Q: Which amyloid nucleation score does the source give for EIQVV here?
A: Its amyloid nucleation score is “inactive”.

Q: Which amyloid nucleation score does the source give for ELALISHTLGSSATPNWFTV here?
A: The amyloid nucleation score was “inactive”.

Q: For ELGFFCSL, which amyloid nucleation score is on record?
A: Its amyloid nucleation score is “inactive”.

Q: For ELGIII, which amyloid nucleation score is on record?
A: Its amyloid nucleation score is “inactive”.

Q: Which amyloid nucleation score does the source give for ELIMCCHEYSVLAMRLLA here?
A: The amyloid nucleation score was “inactive”.

Q: Which amyloid nucleation score does the source give for ELRLHNFTFRLVASFWLLRV here?
A: Its amyloid nucleation score is “inactive”.

Q: For EMCINSVMMDATMSKH, which amyloid nucleation score is on record?
A: Its amyloid nucleation score is “inactive”.

Q: For EMPLF, which amyloid nucleation score is on record?
A: Its amyloid nucleation score is “inactive”.

Q: With ENALARMLAEEI as the substance, how does the amyloid nucleation score read?
A: Its amyloid nucleation score is “inactive”.

Q: For EPRGCYRQMLHKLIMS, which amyloid nucleation score is on record?
A: The amyloid nucleation score was “inactive”.

Q: For EQGSSLHRHNHFVTLMGCRG, which amyloid nucleation score is on record?
A: The amyloid nucleation score was “inactive”.

Q: With ERRIDG as the substance, how does the amyloid nucleation score read?
A: The amyloid nucleation score was 1.23 ± 0.094.

Q: For ERRNRMFSWCWCSSSLLDAE, which amyloid nucleation score is on record?
A: Its amyloid nucleation score is -0.08 ± 1.

Q: For ERSHVCCGNDRYTLLWRVYS, which amyloid nucleation score is on record?
A: Its amyloid nucleation score is “inactive”.

Q: For ERVLRVNHYWICSFPFNPGV, which amyloid nucleation score is on record?
A: The amyloid nucleation score was “inactive”.

Q: Which amyloid nucleation score does the source give for ESETWSTYSALQHGQVAIGC here?
A: The amyloid nucleation score was “inactive”.

Q: With ESLIGSQGQRSNYNIMGNGW as the substance, how does the amyloid nucleation score read?
A: The amyloid nucleation score was “inactive”.

Q: Which amyloid nucleation score does the source give for ESLNGLNRSHA here?
A: The amyloid nucleation score was “inactive”.

Q: With ESMISNGFWGLRARCSVINM as the substance, how does the amyloid nucleation score read?
A: The amyloid nucleation score was “inactive”.

Q: Which amyloid nucleation score does the source give for ESSHRTSIFRDWCNSLLI here?
A: Its amyloid nucleation score is “inactive”.

Q: With ESSMFARDTLWMSFVRTMHS as the substance, how does the amyloid nucleation score read?
A: The amyloid nucleation score was “inactive”.

Q: With ESTIEMIAL as the substance, how does the amyloid nucleation score read?
A: Its amyloid nucleation score is 1.25 ± 0.11.

Q: With ETECVFSDYHSKVNICGGSL as the substance, how does the amyloid nucleation score read?
A: Its amyloid nucleation score is “inactive”.

Q: For ETRFIYAFYFD, which amyloid nucleation score is on record?
A: The amyloid nucleation score was “inactive”.

Q: With ETWLKTINRLGLNRSHLSIL as the substance, how does the amyloid nucleation score read?
A: Its amyloid nucleation score is “inactive”.

Q: With ETYHCIV as the substance, how does the amyloid nucleation score read?
A: The amyloid nucleation score was “inactive”.

Q: For EVDFVALIPCSQTVLFTVEV, which amyloid nucleation score is on record?
A: Its amyloid nucleation score is “inactive”.

Q: For EVFARIVPRDMMLFLILIIP, which amyloid nucleation score is on record?
A: The amyloid nucleation score was “inactive”.

Q: With EVFGVIDDNYFCR as the substance, how does the amyloid nucleation score read?
A: Its amyloid nucleation score is “inactive”.

Q: For EVFVLNYNWNVCHWLFVADV, which amyloid nucleation score is on record?
A: The amyloid nucleation score was 1.83 ± 0.083.

Q: For EVIRCRSSEEIPGRTNSMWD, which amyloid nucleation score is on record?
A: Its amyloid nucleation score is “inactive”.

Q: Which amyloid nucleation score does the source give for EVKGTCWVCVLVHVATSYVG here?
A: The amyloid nucleation score was 0.65 ± 0.21.

Q: For EVLSMYRCSNVFLWFTKFIA, which amyloid nucleation score is on record?
A: The amyloid nucleation score was “inactive”.

Q: For EVSWVSRNVWFNRTCFCVQV, which amyloid nucleation score is on record?
A: The amyloid nucleation score was 0.042 ± 0.64.

Q: Which amyloid nucleation score does the source give for EVVVELIMLS here?
A: Its amyloid nucleation score is “inactive”.

Q: With EYYRWFYN as the substance, how does the amyloid nucleation score read?
A: The amyloid nucleation score was “inactive”.

Q: For FACAFKSSCLNHLCSAVW, which amyloid nucleation score is on record?
A: Its amyloid nucleation score is 0.757 ± 0.17.

Q: For FAICMFRGYLLYFLGLEDEA, which amyloid nucleation score is on record?
A: Its amyloid nucleation score is “inactive”.
